B1: PDL1-23E5 (antibody, V domains shown)
VH: QVQLVQSGAEVVKPGSSVKVSCKASGDTFSRYAISWVRQAPGQAPEWMGRIIPVLGAANYARKFQDRVTITADISTTTAFMELTSLRSEDTAVYYCARSLSGYSLGAFDVWGPGTLVTVSS
VL: QLVLTQPPSVSGAPGQSVSISCIGSNSNIGTPYDVHWYQQIPGEAPKLLIYGSTNRPSGVPDRFSGSRSGSSASLDITGLQADDEAYYYCQSYDRSLGVSDVVFGGGTKLTVL
notes: Only FR/CDR pieces are tied to the clone
B2: PDL1-27F8 (antibody, V domains shown)
VH: QVQLVQSGAEVKKPGSSVKVSCKASGGTFSSSAFSWVRQAPGHGLEWMGRIIPMFDMTDYAQRFQGRLTIIADESSSTAYMELSSLRSEDTAVYYCARSNPHYMDVWGQGTTVTVSS
VL: QLVLTQPPSVSGAPGQRVTISCTGSNSDIGAGHDVHWYQQIPGTAPKVLIYGNTDRPSGVPDRFSGSKSGTSASLAITGLQAEDEADYYCQSYDSSLSGYVFGTGTKVTVL
notes: as for B1
B3: PDL1-31B7 (antibody, V domains shown)
VH: QVQLVESGAEVKKPGSSVKVSCKASGGTFSSYAISWVRQAPGQGLEWMGRIIPILGIANYAQKFQGRVTITADKSTSTAYMELSSLRSEDTAVYYCARASSGYSVGAFDIWGQGTMVTVSS
VL: QLVLTQPPSVSAPPGQKVTISCSGSSSNIGNNYVSWYQQLPGTAPKLLIYDNNERPSGIPDRFSASKSGTSATLGISGLQTGDEADYYCGTWDSSLSAGVFGGGTKLTVL
notes: as for B1
B4: PDL1-22B10 (antibody, V domains shown)
VH: QVQLVQSGAEVKKPGSSVKVSCRASGGTFSSYAISWVRQAPGQGLEWMGRIIPILGIANYAQKFQGRVTITADKSTSTAYMELSSLRSEDTAVYYCARDFVLSGSATVFDPWGQGTLVTVSS
VL: QFVLTQPPSVSGAPGQRVTISCTGSSTNIGAGYDVHWYQQLPGKAPKVVIYGNSNRPSGVLDRFSASKSATSASLAITGLQAEDEADYYCQSYDSSLSGYVFGTGTKVTVL
notes: as for B1
B5: PDL1-23E10 (scFv, V domains shown)
VH: QMQLVESGAEVKKPGSSVKVSCKVSGENFRSHAISWVRQAPGQGLEWMGRIIPIVGLADYPQKFQGRVTISADESTGTAYMDLSSLRSEDTAVYYCVTGRPPWHWGQGILITVSS
VL: QLVLTQPPSVSGAPGQRVTISCTGSSSNIGAGYDVHWYQQLPGTAPKLLIYSNRNRPSGVPDRFSGSKSGTSASLAITGLQAEDEADYYCQSYDSSLSGPNYVFGTGTKVTVL
B6: PDL1-30B1 (antibody, V domains shown)
VH: QVQLVESGGGVVQPGRSLRLSCAASGFTFSSYAMHWVRQGPGKGLEWVAVISYDGSNEFYADSVKGRFTISRDNSKNTLYLQMNSLRAEDTAVYYCARGDYNGVYMDVWGQGTTVTVSS
VL: DIVMTQTPLSLSVTPGQPASISCKSSQSLLHSDGKTYLYWYLQKPGQSPQLLIYEVSKRFSGVPDRFSGSGSGTDFTLKIGRVEAEDVGVYYCMQGLHLPYTFGQGTKLEIK
notes: as for B1
B7: PDL1-31D9 (antibody, V domains shown)
VH: QMQLVESGGGLVQPGGSLRLSCSASGFTFSSYVMHWVRQAPGKGLEYVSAISSNGGSTYYADSVKGRFTISRDNSKNTLYLQMSSLRSEDTAVYYCAREHFSTYSYGVDVWGPGTTVTVSS
VL: DIVMTQTPLSLPVTPGEPASISCRSSQSLLDSDDGNTYLDWYLQKPGQSPQLLIYMISFRASGVPDRFSGSGSGTDFTLKISRVEAEDSGIYYCMQRVEFPYTFGQGTKLEIK
notes: as for B1
B8: PDL1-31E6 (antibody, V domains shown)
VH: QVQLVQSGAEVKKPGSSVKVSCKASGGTFSSYAISWVRQAPGQGLEWMGGIIPIFGTANYAQKFQGRVTITADESTSTAYMELSSLRSEDTAVYYCARGGRSFGAFDSWGQGALVTVSS
VL: DIQMTQSPATLSLSPGERATLSCTASQSISSYLAWYQQKPGQAPRLLIYDSSNRATGIPARFSGSGSGTAFTLTISSLEPEDFAVYFCQQRGQWPLTFGGGTKVDIK
notes: as for B1

biological target: T1, ITGA6; test: ELISA on coated antigen, column ITGA6
T1 construct: unrelated antigen column; all antibodies give 0.5 to 0.6
T1 sequence (P23229 whole entry, species assumed, looked up): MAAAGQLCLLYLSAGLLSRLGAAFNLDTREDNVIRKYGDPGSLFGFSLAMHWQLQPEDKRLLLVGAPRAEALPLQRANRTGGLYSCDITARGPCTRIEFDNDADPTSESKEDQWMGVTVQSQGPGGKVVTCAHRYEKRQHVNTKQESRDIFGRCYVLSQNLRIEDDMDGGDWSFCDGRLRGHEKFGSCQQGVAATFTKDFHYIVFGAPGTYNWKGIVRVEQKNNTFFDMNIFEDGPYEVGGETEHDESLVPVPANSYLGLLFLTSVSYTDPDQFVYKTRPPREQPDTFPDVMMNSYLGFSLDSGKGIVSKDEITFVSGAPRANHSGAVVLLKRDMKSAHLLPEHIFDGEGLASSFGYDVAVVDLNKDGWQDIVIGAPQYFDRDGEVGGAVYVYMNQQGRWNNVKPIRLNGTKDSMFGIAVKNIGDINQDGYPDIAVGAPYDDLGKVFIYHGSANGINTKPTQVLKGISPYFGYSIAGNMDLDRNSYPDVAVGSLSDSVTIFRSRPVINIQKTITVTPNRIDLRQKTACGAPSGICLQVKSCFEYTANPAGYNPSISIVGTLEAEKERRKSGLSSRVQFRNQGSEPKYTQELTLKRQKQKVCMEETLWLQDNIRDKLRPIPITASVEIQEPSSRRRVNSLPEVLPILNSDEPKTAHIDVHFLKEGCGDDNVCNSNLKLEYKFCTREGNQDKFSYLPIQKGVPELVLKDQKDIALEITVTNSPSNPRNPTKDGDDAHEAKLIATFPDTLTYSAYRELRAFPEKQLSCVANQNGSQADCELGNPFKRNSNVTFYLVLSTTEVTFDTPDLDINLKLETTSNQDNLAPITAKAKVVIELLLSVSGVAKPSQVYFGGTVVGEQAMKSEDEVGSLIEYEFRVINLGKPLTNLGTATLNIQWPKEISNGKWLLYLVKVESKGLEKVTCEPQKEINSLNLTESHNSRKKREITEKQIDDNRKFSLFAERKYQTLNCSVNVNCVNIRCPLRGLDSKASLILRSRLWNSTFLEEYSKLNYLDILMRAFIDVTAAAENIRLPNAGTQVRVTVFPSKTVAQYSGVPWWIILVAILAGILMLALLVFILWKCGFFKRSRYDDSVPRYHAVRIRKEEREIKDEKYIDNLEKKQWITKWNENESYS

Row | Binder | absorbance at 490 nm
1 | B1 | 0.5
2 | B2 | 0.5
3 | B3 | 0.5
4 | B4 | 0.5
5 | B5 | 0.5
6 | B6 | 0.6
7 | B7 | 0.5
8 | B8 | 0.5

biological target: M3; test: ELISA on coated antigen, column M3

Row | Binder | absorbance at 490 nm
9 | B1 | 0.9
10 | B2 | 0.9
11 | B3 | 1.1
12 | B4 | 1
13 | B5 | 0.7
14 | B6 | 2.8
15 | B7 | 2.5
16 | B8 | 1

biological target: T2, WT (human, UniProt Q9NZQ7); test: ELISA on coated antigen, column WT
T2 construct: recombinant; also called hPD-L1; antigen PD-L1 wild type (WT)
T2 sequence (Q9NZQ7 19-238 limits assumed): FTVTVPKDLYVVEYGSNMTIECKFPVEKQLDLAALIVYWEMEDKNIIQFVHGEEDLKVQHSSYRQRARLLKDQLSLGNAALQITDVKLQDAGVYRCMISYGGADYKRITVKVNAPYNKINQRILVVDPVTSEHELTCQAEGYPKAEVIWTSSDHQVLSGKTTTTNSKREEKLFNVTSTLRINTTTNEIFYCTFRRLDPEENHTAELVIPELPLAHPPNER
Method: (§1) An antigen PD-L1 wild type (WT) or several mutants were coated at a density of 100 ng/well on a 96-well immunoplate at 4° C. for 16 hours and the wells were blocked with 4% skim milk dissolved in PBS. Each well was washed with 0.2 ml of PBS/T, and then a single clone scFv-phage (each […]) cultured for 16 hours was added in a dose of 100 μl to each well and reacted at room temperature for 2 hours. Again, each well was washed 4 times with 0.2 ml of PBS/T, and then the second antibody, anti-Fab, was diluted to 1/2000 and reacted at room temperature for 1 hour. After washing with 0.2 ml of PBS/T, color development was performed and absorbance was measured at 490 nm.

Row | Binder | absorbance at 490 nm
17 | B1 | 2.5
18 | B2 | 2.9
19 | B3 | 2.5
20 | B4 | 2.5
21 | B5 | 2.2
22 | B7 | 2.5
23 | B8 | 2.2

biological target: PD-L1 on CHO cell line highly expressing PD-L1 (PD-1/PD-L1 blockade bioassay kit, promega J1250) (UniProt Q9NZQ7 19-290, limits assumed); test: cell-based or functional assay
Sequence (Q9NZQ7 19-290 limits assumed): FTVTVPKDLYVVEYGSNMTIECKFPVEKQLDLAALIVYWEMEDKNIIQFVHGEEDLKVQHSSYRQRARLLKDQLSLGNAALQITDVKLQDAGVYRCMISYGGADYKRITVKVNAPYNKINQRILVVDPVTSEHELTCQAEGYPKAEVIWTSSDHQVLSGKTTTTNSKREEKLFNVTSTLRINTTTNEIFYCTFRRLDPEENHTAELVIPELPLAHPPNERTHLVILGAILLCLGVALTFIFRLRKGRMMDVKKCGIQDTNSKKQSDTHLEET

Row | Binder | Average *EC50 [nM], PD-1/PD-L1 blockade bioassay [nM]
24 | B1 | 1.61
25 | B2 | 1.1
26 | B3 | 1.74

biological target: M2; test: ELISA on coated antigen, column M2
Method: as §1

Row | Binder | absorbance at 490 nm
27 | B1 | 2.4
28 | B2 | 2.5
29 | B3 | 2.7
30 | B4 | 2.3
31 | B5 | 2.1
32 | B6 | 2.5
33 | B7 | 1.7
34 | B8 | 1.8

biological target: M4; test: ELISA on coated antigen, column M4
Method: as §1

Row | Binder | absorbance at 490 nm
35 | B1 | 0.5
36 | B2 | 0.4
37 | B3 | 0.7
38 | B4 | 0.4
39 | B5 | 0.5
40 | B6 | 2.6
41 | B7 | 1.8
42 | B8 | 2.4

biological target: M1; test: ELISA on coated antigen, column M1
Method: as §1

Row | Binder | absorbance at 490 nm
43 | B1 | 2.4
44 | B2 | 2.6
45 | B3 | 2.8
46 | B4 | 2.3
47 | B5 | 2.1
48 | B6 | 2.6
49 | B7 | 1.6
50 | B8 | 2.1

biological target: M8; test: ELISA on coated antigen, column M8
Method: as §1

Row | Binder | absorbance at 490 nm
51 | B1 | 2.6
52 | B2 | 2
53 | B3 | 3
54 | B4 | 2.6
55 | B5 | 1
56 | B6 | 2.7
57 | B7 | 1.8
58 | B8 | 1.9

biological target: mouse PD-L1 protein (mouse, UniProt Q9EP73 19-238, limits assumed); test: ELISA on coated antigen, column mPD-L1
Sequence (Q9EP73 19-238 limits assumed): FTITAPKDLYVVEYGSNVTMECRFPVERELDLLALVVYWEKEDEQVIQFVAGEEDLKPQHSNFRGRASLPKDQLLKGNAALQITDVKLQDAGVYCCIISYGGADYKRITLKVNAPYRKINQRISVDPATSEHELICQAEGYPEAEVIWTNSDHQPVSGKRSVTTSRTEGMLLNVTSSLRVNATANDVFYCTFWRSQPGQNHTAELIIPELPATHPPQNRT
Method: as §1

Row | Binder | absorbance at 490 nm | binding result
59 | B1 | 2.5 | –
60 | B2 | 0.1 | no binding
61 | B3 | 1.8 | –
62 | B4 | 0.2 | no binding
63 | B5 | 0.3 | no binding
64 | B6 | 0.1 | no binding
65 | B7 | 0.1 | no binding
66 | B8 | 1.3 | –

biological target: M7; test: ELISA on coated antigen, column M7

Row | Binder | absorbance at 490 nm
67 | B1 | 2.6
68 | B2 | 3
69 | B3 | 3
70 | B4 | 2.5
71 | B5 | 2.3
72 | B6 | 2.7
73 | B7 | 1.9
74 | B8 | 2.5

biological target: M6; test: ELISA on coated antigen, column M6
Method: as §1

Row | Binder | absorbance at 490 nm
75 | B1 | 2.5
76 | B2 | 2.9
77 | B3 | 2.9
78 | B4 | 2.5
79 | B5 | 2.2
80 | B6 | 2.6
81 | B7 | 1.9
82 | B8 | 2.5

biological target: M5; test: ELISA on coated antigen, column M5
Method: as §1

Row | Binder | absorbance at 490 nm
83 | B1 | 2.5
84 | B2 | 2.9
85 | B3 | 2.9
86 | B4 | 2.5
87 | B5 | 2.2
88 | B6 | 2.6
89 | B7 | 1.8
90 | B8 | 2.7
